Experimental data: patent US20090104177A1, “PEPTIDES FOR INHIBITING THE INTERACTION OF PROTEIN KINASE A AND PROTEIN KINASE A ANCHOR PROTEINS” (FORSCHUNGSVERBUND BERLIN E.V., priority 2004, published 2009)
No end group written: not given here.

B1: peptide No. 7 (AKAP18δ-derived, FIG. 3) (peptide)
peptide: ANDARLVRLSKRLVENAVLKAVQQY
notes: also called peptide 7; No. G
B2: A18δRIIαRn2 (10/11) (peptide)
peptide: ANDARLVRLNKRLVENAVLKAVQQY
notes: Member of the substitution library of peptide 7 (row 10, peptide 11); also called peptide 10/11; No. EE
B3: Peptide 8 (peptide)
peptide: ASDARLVRLSKRLVENAVLKAVQQY
notes: AKAP18δ-derived; also called No. H
B4: Peptide 10 (peptide)
peptide: ANDAKTERLSKRLVENAVLKAVQQY
notes: AKAP18δ-derived; also called No. J
B5: Peptide 11 (peptide)
peptide: ANDAKTERLSQRLVENAVLKAVQQY
notes: AKAP18δ-derived; also called No. K
B6: A18δRIIαHs1 (14/14) (peptide)
peptide: ANDARLVRLSKRLRENAVLKAVQQY
notes: Member of the substitution library of peptide 7 (row 14, peptide 14); also called No. BB
B7: Peptide 6 (peptide)
peptide: ARDAQLVRLSKRLVENAVLKAVQQY
notes: AKAP18δ-derived; also called No. F
B8: A18δRIIαHs2 (14/19) (peptide)
peptide: ANDARLVRLSKRLYENAVLKAVQQY
notes: Member of the substitution library of peptide 7 (row 14, peptide 19); also called No. CC
B9: Peptide 12 (peptide)
peptide: ANDAKTQRLSQRLVENAVLKAVQQY
notes: AKAP18δ-derived; also called No. L
B10: Peptide 4 (peptide)
peptide: ASDAKLVRLSKRLVENAVLKAVQQY
notes: AKAP18δ-derived; also called No. D
B11: Peptide 9 (peptide)
peptide: ASDAKTVRLSKRLVENAVLKAVQQY
notes: AKAP18δ-derived; also called No. I
B12: Peptide 3 (peptide)
peptide: ASDAQLVRLSKRLVENAVLKAVQQY
notes: AKAP18δ-derived; also called No. C
B13: Peptide 5 (peptide)
peptide: ARDAKLVRLSKRLVENAVLKAVQQY
notes: AKAP18δ-derived; also called No. E
B14: AKAP18δ-L314E (peptide)
peptide: PEDAELVRLSKRLVENAVEKAVQQY
notes: also called AKAP18delta-L314E; No. W
B15: Peptide 15 (peptide)
peptide: PEDAELVRLSKRLVENAVLNGVQQY
notes: AKAP18δ-derived; also called No. O
B16: Peptide 16 (peptide)
peptide: PEDAELVRLSKRLVENAVLNGQQQY
notes: AKAP18δ-derived; also called No. P
B17: Peptide 18 (peptide)
peptide: PEDAELVRLSKRLVENAVKNGNQQY
notes: AKAP18δ-derived; also called No. R
B18: Peptide 17 (peptide)
peptide: PEDAELVRLSKRLVENAVLNGNQQY
notes: AKAP18δ-derived; also called No. Q
B19: Peptide 14 (peptide)
peptide: PEDAELVRLSKRLVENAVLQAVQQY
notes: AKAP18δ-derived; also called No. N
B20: Peptide 19 (peptide)
peptide: PEDAELVRLSKRLVENAVKNGAQDY
notes: AKAP18δ-derived; also called No. S

What was measured:
[1] = molecular target: T1, regulatory RIIα subunits of PKA (Homo sapiens, UniProt P13861); assay: RII overlay of membrane-bound (SPOT) peptides, radiolabelled RIIα as probe, densitometry; type: binding; conditions: for binding to RIIα subunits in RII overlay: human RIIα as probe, in words
T1 construct: Prof; Dr. Friedrich W. Herberg, University of Kassel, Germany (obtained from an academic laboratory, not a vendor)
T1 sequence (P13861 whole entry): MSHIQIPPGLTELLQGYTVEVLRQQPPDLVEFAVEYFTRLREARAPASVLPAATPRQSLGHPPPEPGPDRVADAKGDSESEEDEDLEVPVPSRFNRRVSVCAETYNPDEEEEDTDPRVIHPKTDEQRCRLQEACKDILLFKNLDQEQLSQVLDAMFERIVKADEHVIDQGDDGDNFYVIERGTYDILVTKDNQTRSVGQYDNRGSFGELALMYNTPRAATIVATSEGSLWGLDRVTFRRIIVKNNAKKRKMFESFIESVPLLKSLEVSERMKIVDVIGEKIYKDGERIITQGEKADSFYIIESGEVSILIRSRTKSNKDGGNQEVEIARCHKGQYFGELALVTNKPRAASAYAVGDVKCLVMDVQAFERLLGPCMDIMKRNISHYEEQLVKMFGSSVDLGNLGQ
Source text: (§1) Peptide libraries were synthesized by means of automatic SPOT synthesis on Whatman 50 cellulose membranes according to standard protocols using Fmoc chemistry and AutoSpot Robot ATE 222 (Intavis Bioanalytical Instruments AG, Cologne). The protective groups of the amino acid side chains were removed using a mixture of trifluoroacetic acid (TFA) in dichloromethane (DCM) (Frank, 1992; Kramer and Schneider-Mergener, 1998). For control, spots (about 50 nmol of peptide per spot) were cut from the cellulose membrane, removed from the membrane by treatment with 0.05 M NaOH, and analyzed using HPLC and MALDI-TOF mass spectrometry.
(§2) • 1. Regulatory RIIα (human) and RIIβ (rat) subunits of PKA, obtained from Prof. Dr. Friedrich W. Herberg, University of Kassel, Germany. • 2. Catalytic subunits of PKA, Promega, Mannheim, Germany, Order No. V5161 • 3. [γ-^32P]ATP, 5000 Ci/mmol, Amersham Biosciences, Brunswick, Germany, Order No. AA0018 • 4. Sephadex G 50, medium Pharmacia, Order No. 17-0043-01 • 5. Phosphate-buffered saline (PBS)
(§3) The ATP concentration was adjusted to 10 μM by addition of non-radioactive ATP (addition of 5 μl of a 1 mM solution). The batch was incubated on ice for another 50 min.
(§4) The reaction was quenched by adding dextran blue and removing free nucleotides. The free ATP was removed on a Sephadex G50 column.
(§5) Non-incorporated nucleotides were separated from the RII subunits by fractionation on Sephadex G 50 columns. • 1. Swelling of the Sephadex G 50 material: 20 g thereof was allowed to swell in 400 ml of PBS at room temperature overnight. Non-settled material was subsequently removed with a Pasteur pipette. The swollen material was aliquoted in 50 ml Falcon tubes and stored at 4° C. For preservation, sodium azide was added to make a final concentration of 0.01%. • 2. The material was poured into a 10 ml sterile disposable pipette sealed with a glass sphere. To settle the column bed, 50 ml of PBS containing 1 mg/ml BSA (bovine serum albumin) was allowed to pass.
(§6) Until used, the column was sealed with parafilm at the top thereof. • 3. The labelled RII subunits (500 μl), together with dextran blue (70 μl of a 20 mg/ml solution), were applied on the column (overall volume=570 μl). • 4. The sample was allowed to migrate into the matrix, followed by filling up with PBS. • 5. A short time before the dextran blue was eluted, collection of fractions was begun (2 fractions of 1.5 ml each, the other fractions 1 ml each). • 6. To determine the incorporation of ^32P, 1% (5.7 μl) of sample upstream of the column (corresponding to 1% of the radioactivity employed) and 3 μl of each fraction were used. • 7. The fractions of the first peak including the probe were combined. The incorporation rate in % was calculated and the specific activity (cpm/μg of protein) was determined.
(§7) • 1. The proteins (40 μg) were separated by means of SDS-PAGE and transferred on a PVDF membrane (PVDF: polyvinylidene fluoride) using a semi-dry electroblotting procedure. The membrane-associated proteins were stained with Ponceau S in order to identify the marker proteins on the membrane. Destaining was effected using TBS. • 2. The membrane was incubated in Blotto/BSA at 4° C. for 16 hours:
(§8) • 3. Blotto/BSA was replaced with fresh one and ^32P-labelled RII subunits were added (10^5 cpm/ml). This was incubated for 4-6 h at room temperature. • 4. The membrane was washed for 4×15 min in Blotto/BSA and for 2×10 min in 10 mM potassium phosphate buffer, pH 7.4, 0.15 M NaCl. • 5. RII-binding proteins were detected by exposition on a phosphoimager plate.
(§9) Identification of AKAP18δ-derived peptides inhibiting the interaction of AKAP proteins with the regulatory RIIα and RIIβ subunits of PKA. A: Peptides derived from the PKA binding domain of AKAP18δ were synthesized on two membranes. The membranes were incubated with radiolabelled regulatory RIIα (upper row) or RIIβ subunits (row below) of the PKA (RII overlay experiment). […]

[2] = molecular target: T2, regulatory RIIβ subunits of PKA (Rattus norvegicus, UniProt P12369); assay: RII overlay of membrane-bound (SPOT) peptides, radiolabelled RIIβ as probe, densitometry; type: binding; conditions: in words
T2 construct: Prof; Dr. Friedrich W. Herberg, University of Kassel, Germany (obtained from an academic laboratory, not a vendor)
T2 sequence (P12369 whole entry): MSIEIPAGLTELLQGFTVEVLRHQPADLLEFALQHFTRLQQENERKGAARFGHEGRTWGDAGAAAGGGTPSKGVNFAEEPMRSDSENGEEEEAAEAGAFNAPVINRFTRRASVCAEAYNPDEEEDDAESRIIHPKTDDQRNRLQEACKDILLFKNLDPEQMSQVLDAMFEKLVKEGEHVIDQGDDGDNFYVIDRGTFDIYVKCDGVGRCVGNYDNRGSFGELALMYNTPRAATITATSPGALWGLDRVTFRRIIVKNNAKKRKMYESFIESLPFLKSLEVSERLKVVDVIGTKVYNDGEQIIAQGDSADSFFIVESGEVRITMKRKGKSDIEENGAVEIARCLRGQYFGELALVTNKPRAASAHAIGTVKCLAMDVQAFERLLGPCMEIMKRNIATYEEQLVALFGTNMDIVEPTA
Source text: as §1, §2, §3, §4, §5, §6, §7, §8, §9

[3] = test system: RII subunits of the PKAs; assay: Summary statement on RII binding of AKAP18δ-derived negative control peptides; conditions: negative controls; in words
Source text: They have in common that binding is no longer present due to structural differences (1, 2) or differences in charge (3, 4).

[4] = molecular target: human RIIα subunits (Homo sapiens, UniProt P13861); assay: Surface plasmon resonance measurement of peptide binding to RIIα
human RIIα subunits, sequence (P13861 whole entry): as the sequence (P13861 whole entry) above

[5] = molecular target: RIIβ subunits from rats (Rattus norvegicus, UniProt P12369); assay: Surface plasmon resonance measurement of peptide binding to RIIβ
RIIβ subunits from rats, sequence (P12369 whole entry): as the sequence (P12369 whole entry) above

[6] = molecular target: T3, regulatory RIIβ subunit of PKA (rat) (rat, UniProt P12369 1-416, 32P-labelled with the catalytic subunit of PKA when used as probe in the RII overlay experiments); assay: RII overlay: SPOT peptide on membrane, 32P-labelled RIIβ probe, phosphoimager, densitometry as % of AKAP18δ-wt
T3 construct: Radiolabelled probe in RII overlays; format in the surface plasmon resonance measurements is not described; also called RIIβ subunit of PKA from rats
T3 sequence (P12369 whole entry): as above

[7] = molecular target: T4, regulatory RIIα subunit of PKA (human) (human, UniProt P13861 1-404, 32P-labelled with the catalytic subunit of PKA when used as probe in the RII overlay experiments); assay: RII overlay: SPOT peptide on membrane, 32P-labelled RIIα probe, phosphoimager, densitometry as % of AKAP18δ-wt
T4 construct: Radiolabelled probe in RII overlays; format in the surface plasmon resonance measurements is not described; also called human RIIα
T4 sequence (P13861 whole entry): as the sequence (P13861 whole entry) above

[8] = molecular target: T3, regulatory RIIβ subunit of PKA (rat); assay: RII overlay on SPOT membrane with radiolabelled RIIβ
[9] = molecular target: T4, regulatory RIIα subunit of PKA (human); assay: RII overlay on SPOT membrane with radiolabelled RIIα
[10] = molecular target: T3, regulatory RIIβ subunit of PKA (rat); assay: surface plasmon resonance

Molecule	binding result [6]	binding result [7]	other results
ANDARLVRLNKRLVENAVLKAVQQY [10/11]	–	–	binding to RIIα subunits in RII overlay [1]: bind RIIα; binding to RIIβ subunits in RII overlay [2]: no RIIβ
ANDARLVRLPKRLVENAVLKAVQQY [10/12]	–	–	binding to RIIα subunits in RII overlay [1]: bind RIIα; binding to RIIβ subunits in RII overlay [2]: no RIIβ
ANDARLVRLSKRLRENAVLKAVQQY [A18δRIIα Hs1]	–	–	binding to RIIα subunits in RII overlay [1]: binding to RIIα
ANDARLVRLSKRLVENAVLKAVQQY [peptide No. 7]	–	–	difference in binding of the two PKA subunits (RIIα vs RIIβ) ([1]; RII overlay on two membranes, quantitative evaluation (FIG. 3)): marked difference
ANDARLVRLSKRLVENAVLKFVQQY [21/4]	–	–	binding to RIIα subunits in RII overlay [1]: vice versa; binding to RIIβ subunits in RII overlay [2]: vice versa; binding to RIIβ subunits in RII overlay ([2]; listed as A18δRIIβRn1): binding to RIIβ; binding to RIIβ subunits in RII overlay ([2]; listed as A18δRIIβRnl): selectively binds RIIβ subunits
ANDARLVRLSKRLYENAVLKAVQQY [A18δRIIα Hs2]	–	–	binding to RIIα subunits in RII overlay [1]: binding to RIIα
PEDAELVRLDKRLPENAPLKAVQQY (also: phosphorylated; listed as Homo sapiens) [AKAP18δ-phos]	–	–	binding of RII subunits of the PKAs [3]: absent binding
PEDAELVRLSKRDVENAVLKAVQQY [AKAP18δ-L308D]	–	–	binding to RIIα subunits in RII overlay [1]: weaker; binding of RII subunits of the PKAs [3]: absent binding; RIIα binding KD [4]: no binding; RIIβ binding KD [5]: no binding; binding to RIIβ subunits in RII overlay [2]: weaker
PEDAELVRLSKRLPENAPLKAVQQY [AKAP18δ-PP]	–	–	binding of RII subunits of the PKAs [3]: absent binding; RIIα binding KD [4]: no binding; RIIβ binding KD [5]: no binding
PEDAELVRLSKRLPENAVLKAVQQY [AKAP18δ-P]	–	–	binding of RII subunits of the PKAs [3]: absent binding; RIIα binding KD [4]: no binding; RIIβ binding KD [5]: no binding
PEDAELVRLSKRLVENAVLKAVQQY [AKAP18δ-wt]	–	–	Kd [4]: 0.4 to 1.5 nM; Kd [5]: 1 to 6 nM
B1	binds	binds	–
B2	–	–	binding result [8]: no binding; binding result [9]: binds
B3	binds	binds	–
B4	binds	binds	–
B5	binds	binds	–

Molecule	binding result [6]	binding result [7]	other results
B6	–	–	binding result [9]: binds
B7	binds	binds	–
B8	–	–	binding result [9]: binds
B9	binds	binds	–
B10	binds	binds	–
B11	binds	binds	–
B12	binds	binds	–
B13	binds	binds	–
B14	–	–	Kd [10]: 22 nM
B15	binds	binds	–
B16	binds	binds	–
B17	binds	binds	–
B18	binds	binds	–
B19	binds	binds	–
B20	binds	binds	–
